The text below walks through data of PMC10312692 (bioRxiv, 2023).

B1: DISC1 598-854 C680S/C682S/C684S/C698S/C762S/C782S/C844S (domain or fragment)
chain: GNHFFTAKDLTEEIRSLTSEREGLEGLLSKLLVLSSRNVKKLGSVKEDYNRLRREVEHQETAYETSVKENTMKYMETLKNKLSSSKSPLLGKVWEADLEASRLLIQSLQLQEARGSLSVEDERQMDDLEGAAPPIPPRLHSEDKRKTPLKVLEEFKTHLIPSLHSAGGEQKEESYILSAELGEKSEDIGKKLLYLEDQLHTAIHSHDEDLIQSLRRELQMVKETLQAMILQLQPAKEAGEREAAASSMTAGVHEAQA
B2: DISC1 598-854 C680S/C684S/C698S/C762S/C782S/C844S (domain or fragment)
chain: GNHFFTAKDLTEEIRSLTSEREGLEGLLSKLLVLSSRNVKKLGSVKEDYNRLRREVEHQETAYETSVKENTMKYMETLKNKLSSCKSPLLGKVWEADLEASRLLIQSLQLQEARGSLSVEDERQMDDLEGAAPPIPPRLHSEDKRKTPLKVLEEFKTHLIPSLHSAGGEQKEESYILSAELGEKSEDIGKKLLYLEDQLHTAIHSHDEDLIQSLRRELQMVKETLQAMILQLQPAKEAGEREAAASSMTAGVHEAQA
B3: DISC1 598-854 C680S/C682S/C698S/C762S/C782S/C844S (domain or fragment)
chain: GNHFFTAKDLTEEIRSLTSEREGLEGLLSKLLVLSSRNVKKLGSVKEDYNRLRREVEHQETAYETSVKENTMKYMETLKNKLSSSKCPLLGKVWEADLEASRLLIQSLQLQEARGSLSVEDERQMDDLEGAAPPIPPRLHSEDKRKTPLKVLEEFKTHLIPSLHSAGGEQKEESYILSAELGEKSEDIGKKLLYLEDQLHTAIHSHDEDLIQSLRRELQMVKETLQAMILQLQPAKEAGEREAAASSMTAGVHEAQA
B4: DISC1 598-854 C682S/C684S/C698S/C762S/C782S/C844S (domain or fragment)
chain: GNHFFTAKDLTEEIRSLTSEREGLEGLLSKLLVLSSRNVKKLGSVKEDYNRLRREVEHQETAYETSVKENTMKYMETLKNKLCSSKSPLLGKVWEADLEASRLLIQSLQLQEARGSLSVEDERQMDDLEGAAPPIPPRLHSEDKRKTPLKVLEEFKTHLIPSLHSAGGEQKEESYILSAELGEKSEDIGKKLLYLEDQLHTAIHSHDEDLIQSLRRELQMVKETLQAMILQLQPAKEAGEREAAASSMTAGVHEAQA
B5: DISC1 598-854 C698S/C762S/C782S/C844S (domain or fragment)
chain: GNHFFTAKDLTEEIRSLTSEREGLEGLLSKLLVLSSRNVKKLGSVKEDYNRLRREVEHQETAYETSVKENTMKYMETLKNKLCSCKCPLLGKVWEADLEASRLLIQSLQLQEARGSLSVEDERQMDDLEGAAPPIPPRLHSEDKRKTPLKVLEEFKTHLIPSLHSAGGEQKEESYILSAELGEKSEDIGKKLLYLEDQLHTAIHSHDEDLIQSLRRELQMVKETLQAMILQLQPAKEAGEREAAASSMTAGVHEAQA
B6: DISC1 598-854 C682S/C698S/C762S/C782S/C844S (domain or fragment)
chain: GNHFFTAKDLTEEIRSLTSEREGLEGLLSKLLVLSSRNVKKLGSVKEDYNRLRREVEHQETAYETSVKENTMKYMETLKNKLCSSKCPLLGKVWEADLEASRLLIQSLQLQEARGSLSVEDERQMDDLEGAAPPIPPRLHSEDKRKTPLKVLEEFKTHLIPSLHSAGGEQKEESYILSAELGEKSEDIGKKLLYLEDQLHTAIHSHDEDLIQSLRRELQMVKETLQAMILQLQPAKEAGEREAAASSMTAGVHEAQA
B7: DISC1 598-854 C680S/C698S/C762S/C782S/C844S (domain or fragment)
chain: GNHFFTAKDLTEEIRSLTSEREGLEGLLSKLLVLSSRNVKKLGSVKEDYNRLRREVEHQETAYETSVKENTMKYMETLKNKLSSCKCPLLGKVWEADLEASRLLIQSLQLQEARGSLSVEDERQMDDLEGAAPPIPPRLHSEDKRKTPLKVLEEFKTHLIPSLHSAGGEQKEESYILSAELGEKSEDIGKKLLYLEDQLHTAIHSHDEDLIQSLRRELQMVKETLQAMILQLQPAKEAGEREAAASSMTAGVHEAQA
B8: DISC1 598-854 C684S/C698S/C762S/C782S/C844S (domain or fragment)
chain: GNHFFTAKDLTEEIRSLTSEREGLEGLLSKLLVLSSRNVKKLGSVKEDYNRLRREVEHQETAYETSVKENTMKYMETLKNKLCSCKSPLLGKVWEADLEASRLLIQSLQLQEARGSLSVEDERQMDDLEGAAPPIPPRLHSEDKRKTPLKVLEEFKTHLIPSLHSAGGEQKEESYILSAELGEKSEDIGKKLLYLEDQLHTAIHSHDEDLIQSLRRELQMVKETLQAMILQLQPAKEAGEREAAASSMTAGVHEAQA

This series deals with the molecule itself. The experiment in a line: SEC. In general terms: Size exclusion chromatography separates by hydrodynamic size, large species first.
Turning to B1, the binding result is reported as “binds”.

Consider B2, for which the binding result is “binds”.

With B3, the binding result is “binds”.

For the protein B4, the binding result is on record as “binds”.

For the protein B5, the binding result is “binds”.

With B6, the binding result is recorded as “binds”.

B7: the binding result was “binds”.

For B8, the binding result is reported as “binds”.
